Assays:
Test in all cases: IEDB peptide-MHC binding, purified MHC/competitive/radioactivity; filed as Kd, often an IC50 or EC50 that approximates it; ≥ and ≤ were set here for values at or beyond the usual limits of such assays
HLA-A*11:01 = molecular target: HLA-A*11:01
HLA-A*31:01 = molecular target: HLA-A*31:01
HLA-A*33:01 = molecular target: HLA-A*33:01
HLA-A*03:01 = molecular target: HLA-A*03:01
HLA-A*68:01 = molecular target: HLA-A*68:01
[1] = source organism: SARS coronavirus Tor2
[2] = source organism: Dengue virus 2 Jamaica/1409/1983
[3] = source organism: Mammarenavirus machupoense
[4] = source organism: Dengue virus 3 Martinique/1243/1999
[5] = source organism: Vaccinia virus WR
[6] = source organism: Dengue virus 1 Brazil/97-11/1997
[7] = source organism: Mammarenavirus juninense
[8] = source organism: Mammarenavirus guanaritoense
[9] = source organism: Lassa virus GA391
[10] = source organism: Vaccinia virus Copenhagen
[11] = source organism: Dengue virus 4 Philippines/H241/1956

| Sequence | Kd (HLA-A*11:01; [5]) [nM] | Kd (HLA-A*31:01; [5]) [nM] | Kd (HLA-A*33:01; [5]) [nM] | Kd (HLA-A*03:01; [5]) [nM] | Kd (HLA-A*68:01; [5]) [nM] | also measured |
| --- | --- | --- | --- | --- | --- | --- |
| TVSALVYDNK | – | – | – | – | – | Kd (HLA-A*11:01; [1]): 20.6 nM; Kd (HLA-A*31:01; [1]): 4890 nM; Kd (HLA-A*33:01; [1]): 9750 nM; Kd (HLA-A*03:01; [1]): 488 nM; Kd (HLA-A*68:01; [1]): 5.88 nM |
| GQLKLNWFK | – | – | – | – | – | Kd (HLA-A*11:01; [2]): 28.1 nM |
| HYIHCFRKPH | – | – | – | – | – | Kd (HLA-A*11:01; [3]): ≥ 69700 nM; Kd (HLA-A*31:01; [3]): 89.8 nM; Kd (HLA-A*33:01; [3]): 589 nM; Kd (HLA-A*03:01; [3]): ≥ 70000 nM; Kd (HLA-A*68:01; [3]): ≥ 70100 nM |
| GTILIKVEYK | – | – | – | – | – | Kd (HLA-A*11:01; [4]): 69.2 nM; Kd (HLA-A*68:01; [4]): 38.2 nM |
| TTEMLSRALK | – | – | – | – | – | Kd (HLA-A*11:01; [1]): 67.2 nM; Kd (HLA-A*31:01; [1]): 120 nM; Kd (HLA-A*33:01; [1]): 3910 nM; Kd (HLA-A*03:01; [1]): 101 nM; Kd (HLA-A*68:01; [1]): 12.8 nM |
| LMPILTLTR | – | – | – | – | – | Kd (HLA-A*11:01; [1]): 1130 nM; Kd (HLA-A*31:01; [1]): 723 nM; Kd (HLA-A*33:01; [1]): 15000 nM; Kd (HLA-A*03:01; [1]): 102 nM; Kd (HLA-A*68:01; [1]): 1720 nM |
| VTDLENRLKK | 14.5 | ≥ 37700 | ≥ 70000 | 291 | ≥ 31700 | – |
| DTRTPKAKR | – | – | – | – | – | Kd (HLA-A*33:01; source organism: Dengue virus 1 Singapore/S275/1990): 93.7 nM |
| SADNHPKMIK | 2.04 | 33.7 | 144 | 16.7 | 15.1 | – |
| MFAVGLLFRR | – | – | – | – | – | Kd (HLA-A*31:01; [6]): 19000 nM; Kd (HLA-A*33:01; [6]): 1.66 nM; Kd (HLA-A*68:01; [6]): 61.8 nM |
| NLTETFRDY | ≥ 77900 | ≥ 77900 | ≥ 77700 | ≥ 78000 | ≥ 37400 | – |
| RTRLYDYFTR | 991 | 0.7 | 1630 | 6060 | 1450 | – |
| EIKAEMQLK | 1670 | ≥ 43900 | 1520 | 1020 | 15.7 | – |
| SWPLQCPLDH | – | – | – | – | – | Kd (HLA-A*11:01; [7]): ≥ 69700 nM; Kd (HLA-A*31:01; [7]): ≥ 22800 nM; Kd (HLA-A*33:01; [7]): ≥ 38500 nM; Kd (HLA-A*03:01; [7]): ≥ 70000 nM; Kd (HLA-A*68:01; [7]): ≥ 70100 nM |
| TKTAVNMLTH | – | – | – | – | – | Kd (HLA-A*31:01; [8]): 7550 nM; Kd (HLA-A*33:01; [8]): ≥ 35700 nM; Kd (HLA-A*68:01; [8]): 870 nM |
| AANTVIWDY | – | – | – | – | – | Kd (HLA-A*11:01; [1]): 107 nM; Kd (HLA-A*31:01; [1]): ≥ 38100 nM; Kd (HLA-A*33:01; [1]): ≥ 77700 nM; Kd (HLA-A*03:01; [1]): ≥ 78000 nM; Kd (HLA-A*68:01; [1]): 14200 nM |

| Sequence | Kd (HLA-A*11:01; [5]) [nM] | Kd (HLA-A*31:01; [5]) [nM] | Kd (HLA-A*33:01; [5]) [nM] | Kd (HLA-A*03:01; [5]) [nM] | Kd (HLA-A*68:01; [5]) [nM] | also measured |
| --- | --- | --- | --- | --- | --- | --- |
| RSTIFDIVSK | 1.97 | 222 | 6500 | 81.3 | 79.2 | – |
| IVPFWITAIY | – | – | – | – | – | Kd (HLA-A*11:01; [1]): 1020 nM; Kd (HLA-A*31:01; [1]): 1320 nM; Kd (HLA-A*33:01; [1]): 2360 nM; Kd (HLA-A*03:01; [1]): 71 nM; Kd (HLA-A*68:01; [1]): 178 nM |
| ENAVWDQFK | – | – | – | – | – | Kd (HLA-A*11:01; [9]): 15100 nM; Kd (HLA-A*31:01; [9]): ≥ 77900 nM; Kd (HLA-A*33:01; [9]): 1020 nM; Kd (HLA-A*03:01; [9]): ≥ 31500 nM; Kd (HLA-A*68:01; [9]): 250 nM |
| LTDTEYRAR | ≥ 53900 | ≥ 77900 | ≥ 77700 | ≥ 78000 | ≥ 42600 | – |
| GLACYRFVK | – | – | – | – | – | Kd (HLA-A*11:01; [10]): 24 nM; Kd (HLA-A*31:01; [10]): 217 nM; Kd (HLA-A*33:01; [10]): 1830 nM; Kd (HLA-A*03:01; [10]): 22.2 nM; Kd (HLA-A*68:01; [10]): 703 nM |
| YLKNYKNFDY | 2490 | 1540 | ≥ 70000 | 4070 | 7290 | – |
| CEMNHVNSMH | – | – | – | – | – | Kd (HLA-A*68:01; source organism: Mammarenavirus brazilense): ≥ 48100 nM |
| PLFHGGEPIK | ≥ 28700 | ≥ 70000 | ≥ 70000 | 18300 | ≥ 70200 | – |
| RIVTVTTKDY | 600 | 18300 | ≥ 70000 | 427 | 1550 | – |
| VSAQNISFK | 9.62 | 1570 | ≥ 33900 | 14.6 | 70.6 | – |
| DGCWYGMEIR | – | – | – | – | – | Kd (HLA-A*33:01; [2]): 154 nM |
| LSFSNTIQSY | 1370 | ≥ 70000 | ≥ 70000 | 7430 | 4670 | – |
| ALTLHWFRK | – | – | – | – | – | Kd (HLA-A*11:01; [11]): 100 nM; Kd (HLA-A*03:01; [11]): 15 nM |
| DAEACYIYK | 57.5 | 208 | 234 | 1350 | 49.2 | – |
| AQQFANVISK | 2.68 | 1940 | ≥ 70000 | 83.8 | 17600 | – |
| FLLRHYYNKR | 1130 | 16.2 | 17.4 | 1840 | 1850 | – |

— the Immune Epitope Database (IEDB)
